Measured values reported in patent US6218168A, “Process for preparing O-acetylserine, L-cysteine and L-cysteine-related products” (Consortium fur elektrochemische Inudstrie GmbH, priority 1995, dated 2001).

Legend:
production strain JM15 = experiment: Cysteine production in 1 L fermenter, JM15 with plasmid-encoded cysE alleles; type: cell-based, E. coli; settings: 48 h, JM15 transformed with plasmid
Experimental: Influence of different, plasmid-encoded cysE alleles on the production of L-cysteine or products derived from L-cysteine in a 1 L fermenter using the host strain JM15 20 mL of LB medium (1% tryptone, 0.5% yeast extract, 0.5% NaCl) contained in a 100 mL Erlenmeyer flask were inoculated with a single colony of the production strain JM15 (CGSC#5042) which had been transformed with the respective cysE plasmid.
After having been incubated for 7 hours in a bacterial shaker (30° C., 150 rpm), the respective preliminary cultures were transferred to 100 mL of SM1 medium. The SM1 medium contained 5 g/L glucose, 5 mg/L vitamin B1, 3 g/l KH2 PO4, 12 g/L K2 HPO4, 0.3 g/L MgSO4×7 H2 O, 0.1 g/L NaCl, 5 g/L (NH4)2 SO4, 14.7 mg/L CaCl2×2 H2 O, 2 mg/L FeSO4×2 H2 O, 1 g/L Na3 citrate×2 H2 O, 1 ml/L trace element solution and 25 mg/L tetracycline. The trace element solution was composed of 0.15 g/L Na2 MoO4×2 H2 O, 2.5 g/L H3 BO3, 0.7 g/L CoCl2×6 H2 O, 0.25 g/L CuSO4×5 H2 O, 1.6 g/L MnCl2×4 H2 O and 0.3 g/L ZnSO4×7 H2 O. The cultures were shaken in 1 L Erlenmeyer flasks at 30° C. and at 150 rpm for 17 h. After this incubation, the OD600 was between 4 and 5. The subsequent fermentation was carried out in Braun-Melsungen BIOSTAT M research fermenters. A culturing vessel having a total volume of 2 L was used.
The fermentation medium contained 15 g/L glucose, 5 g/L NaCl, 0.3 g/L MgSO4×7 H2 O, 15 mg/L CaCl2×2 H2 O, 75 mg/L FeSO4×7 H2 O, 1 g/L Na3 citrate×2 H2 O, 1.5 g/L KH2 PO4, 1 mL of trace element solution (see above), 5 mg/L vitamin B1, 2.5 g/L yeast extract (Difco), 2.5 g/L tryptone (Difco) and 25 mg/L tetracycline.
The glucose concentration in the fermenter was initially adjusted to a value of 15 g/L by pumping in a 700 g/L (w/v) (sterilized) glucose solution, and the pH was adjusted to 7.0 by pumping in a 25% NH4 OH solution. After an OD600 of 10 had been reached, 300 mg per hour were supplied from a sterile 100 g/L (w/v) stock solution of thiosulfate. 100 mL of preliminary culture were pumped into the fermenter vessel for the inoculation. The starting volume was approximately 1 L. The cultures were initially stirred at 400 rpm and aerated with 1.5 vvm of compressed air which had been sterilized by passing through a sterile filter. The fermentation was carried out at a temperature of 30° C.
The pH was maintained at a value of 7.0 by means of automatic correction with 25% NH4 OH. The oxygen saturation in the fermentation broth had at no time during the fermentation to fall below 20%; the stirring speed was used to ensure this. The glucose content of the nutrient solution, the optical density and the cysteine content were determined at two- to three-hourly intervals. The glucose content was determined enzymically using a glucose analyzer from YSI. The concentration of the glucose was adjusted to between 10 and 20 g/L by means of continuously feeding in this compound.
The content of cysteine in the medium was determined […] from the cell-free super-natant of the sample using the method of Gaitonde, M. K. (1967), Biochem. J. 104, 627-633.
The fermentation was terminated after 44-50 h.

JM15attλ::cysE strains = experiment: Cysteine production in 1 L fermenter, chromosomally encoded cysE alleles; type: cell-based, E. coli; settings: single chromosomal copy
Experimental: For the purpose of being integrated into the chromosomal attachment site (attλ), the cysE alleles cysEIV, cysEX and cysEXI were cloned into the plasmid pRS551 (Simons et al., 1987, Gene 53: 85-96). For this, each cysE allele was amplified by PCR from the corresponding cysE plasmid. The oligonucleotides which were used, i.e. cysE-fwl and cysE-revl, are described in Example 1. The amplification was carried out as described in Example 3. The resulting fragments were cleaved with EcoRI/BamHI, purified through an agarose gel and ligated into vector pRS551 which had been cleaved with EcoRI and BamHI. This afforded the vector pRS551-based recombinant plasmids pRScysEIV, X and XI.
A heterogeneous lambda lysate, which contained recombinant cysE allele-carrying λRS45 derivatives in addition to λRS45 phages, was produced in vivo by homologous recombination by means of preparing a plate lysate on a pRScysE-carrying recA^+ strain (e.g. YMC9, ATCC 3397) using the λRS45 phage (Simons et al., 1987, Gene 53: 85-96).
The cysE strain JM15, which was infected with the heterogeneous lambda lysate and subsequently plated on kanamycin-containing (25 mg/L) LB plates, was used for selecting for the recombinant RS45 derivatives. The lysogenic, kanamycin-resistant clones which were obtained were then tested for their ability to grow on minimal medium plates without cysteine. A clone which was in each case cysteine-prototrophic was selected and used for preparing a homogeneous cysE λ lysate (by means of UV induction, Simons et al., 1987, Gene 53: 85-96).
The JM15 stain was infected with these homogeneous cysE λ lysates which were obtained in each case. The resulting JM15attλ::cysE strains were cultured as described in Example 6. Instead of tetracycline, the respective media in each case contained 25 mg of kanamycin per L as the selection agent.

B1: cysEXI: double mutant Thr167->Ala167, Gly245->Ser245 (protein, UniProt P0A9D4 1-273, looked up, variant T167A G245S)
Serine acetyltransferase: MSCEELEIVWNNIKAEARTLADCEPMLASFYHATLLKHENLGSALSYMLANKLSSPIMPAIAIREVVEEAYAADPEMIASAACDIQAVRTRDPAVDKYSTPLLYLKGFHALQAYRIGHWLWNQGRRALAIFLQNQVSVTFQVDIHPAAKIGRGIMLDHATGIVVGEAAVIENDVSILQSVTLGGTGKSGGDRHPKIREGVMIGAGAKILGNIEVGRGAKIGAGSVVLQPVPPHTTAAGVPARIVSKPDSDKPSMDMDQHFNGINHTFEYGDGI
What does the source list for B1?
Cysteine yield (production strain JM15): 3.4 g/L; yields of cysteine (JM15attλ::cysE strains): 2.1 g/L
